Source: US5994310A, “Peptide ligands for affinity purification of human Factor VIII” (Bayer Corporation, priority 1998, dated 1999)
Where no end group is shown, it is not given here.

How the values were obtained:
human Factor VIII [1] = biological target: T1, human Factor VIII (Homo sapiens, UniProt P00451); experiment: Preparative hrFVIII purification by peptide resins, fractions assayed for Factor VIII activity (Coatest VIII:C/4); conditions: load KG2DEAE 136 IU; for Elute Total IU / Flow-Through Total IU / Salt Wash Total IU: Coatest
T1 construct: (the applicant)
T1 sequence (P00451 20-2351): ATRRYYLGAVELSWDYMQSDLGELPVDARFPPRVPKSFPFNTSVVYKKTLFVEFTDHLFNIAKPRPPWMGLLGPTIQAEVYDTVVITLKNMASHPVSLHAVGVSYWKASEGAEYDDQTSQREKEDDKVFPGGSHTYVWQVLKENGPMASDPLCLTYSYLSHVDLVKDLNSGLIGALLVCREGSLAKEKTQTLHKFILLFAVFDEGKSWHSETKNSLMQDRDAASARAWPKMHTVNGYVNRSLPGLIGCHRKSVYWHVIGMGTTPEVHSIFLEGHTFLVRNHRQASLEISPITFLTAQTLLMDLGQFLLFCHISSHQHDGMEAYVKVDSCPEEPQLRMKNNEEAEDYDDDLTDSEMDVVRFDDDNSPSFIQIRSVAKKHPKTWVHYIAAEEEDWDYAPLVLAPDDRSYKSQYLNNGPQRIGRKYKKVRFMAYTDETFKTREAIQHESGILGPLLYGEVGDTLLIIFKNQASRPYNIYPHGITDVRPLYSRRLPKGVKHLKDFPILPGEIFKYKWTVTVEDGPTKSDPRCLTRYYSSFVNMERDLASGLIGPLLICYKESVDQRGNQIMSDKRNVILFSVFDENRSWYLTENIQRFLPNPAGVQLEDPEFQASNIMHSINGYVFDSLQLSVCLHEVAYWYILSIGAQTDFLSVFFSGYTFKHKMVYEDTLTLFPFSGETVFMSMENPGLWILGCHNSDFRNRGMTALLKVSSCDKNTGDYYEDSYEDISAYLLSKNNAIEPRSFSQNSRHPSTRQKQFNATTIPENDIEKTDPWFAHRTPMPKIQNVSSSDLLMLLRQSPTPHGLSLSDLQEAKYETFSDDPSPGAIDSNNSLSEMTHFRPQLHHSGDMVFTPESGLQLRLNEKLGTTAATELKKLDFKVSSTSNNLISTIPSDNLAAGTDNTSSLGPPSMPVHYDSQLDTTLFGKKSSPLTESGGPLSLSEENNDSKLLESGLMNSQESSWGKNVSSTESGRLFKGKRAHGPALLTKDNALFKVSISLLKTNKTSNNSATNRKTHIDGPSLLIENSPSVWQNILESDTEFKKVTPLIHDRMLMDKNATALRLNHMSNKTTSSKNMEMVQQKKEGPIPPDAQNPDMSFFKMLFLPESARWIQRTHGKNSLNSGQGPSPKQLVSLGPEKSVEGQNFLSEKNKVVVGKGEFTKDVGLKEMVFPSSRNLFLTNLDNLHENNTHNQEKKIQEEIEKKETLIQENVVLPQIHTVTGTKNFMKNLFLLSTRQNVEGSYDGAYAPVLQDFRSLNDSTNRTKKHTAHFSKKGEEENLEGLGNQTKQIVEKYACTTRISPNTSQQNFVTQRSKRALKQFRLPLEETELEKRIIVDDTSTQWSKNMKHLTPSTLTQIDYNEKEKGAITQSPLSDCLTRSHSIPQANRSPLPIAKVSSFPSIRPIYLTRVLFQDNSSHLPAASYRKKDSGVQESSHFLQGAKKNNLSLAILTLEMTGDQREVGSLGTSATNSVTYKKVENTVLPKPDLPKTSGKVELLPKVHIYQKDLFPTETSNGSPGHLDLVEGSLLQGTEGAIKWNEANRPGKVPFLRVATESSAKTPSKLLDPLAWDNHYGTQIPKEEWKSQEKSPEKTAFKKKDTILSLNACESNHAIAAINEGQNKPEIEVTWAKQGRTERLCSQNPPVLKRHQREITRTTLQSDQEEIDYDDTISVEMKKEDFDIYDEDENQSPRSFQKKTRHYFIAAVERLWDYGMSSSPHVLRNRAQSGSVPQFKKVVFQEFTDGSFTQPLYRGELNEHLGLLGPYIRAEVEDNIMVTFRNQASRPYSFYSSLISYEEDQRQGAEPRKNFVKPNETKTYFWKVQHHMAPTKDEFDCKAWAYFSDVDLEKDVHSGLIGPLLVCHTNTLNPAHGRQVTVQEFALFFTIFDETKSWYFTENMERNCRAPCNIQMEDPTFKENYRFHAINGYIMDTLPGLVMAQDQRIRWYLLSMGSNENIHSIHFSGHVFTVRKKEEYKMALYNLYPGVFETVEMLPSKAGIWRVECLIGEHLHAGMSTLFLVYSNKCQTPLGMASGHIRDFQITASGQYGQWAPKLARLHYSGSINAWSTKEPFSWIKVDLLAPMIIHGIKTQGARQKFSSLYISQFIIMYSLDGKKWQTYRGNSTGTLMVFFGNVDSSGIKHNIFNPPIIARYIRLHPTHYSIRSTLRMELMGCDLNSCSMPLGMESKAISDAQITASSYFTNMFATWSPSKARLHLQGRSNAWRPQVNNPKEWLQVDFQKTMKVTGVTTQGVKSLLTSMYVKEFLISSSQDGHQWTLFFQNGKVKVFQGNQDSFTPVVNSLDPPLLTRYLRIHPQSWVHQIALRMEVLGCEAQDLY
Experimental: Preparative batch synthesis of the preferred sequences was performed using 10 g TSK resin (Toyopearl AF-Amino-650M, TosoHaas, Inc., Montgomeryville, Pa.) as described in Buettner, J., 1996, supra. […] Three injections of an in-process sample of human Factor VIII were contacted with each resin and fractions of flow-through, salt wash and elution were tested for biological activity, protein profile by SDS-PAGE, and target protein identification by Western blot analyses, as described in Buettner, J., 1996, supra. Biological activity was defined as the ability of the column fraction to reconstitute Factor VIII-depleted plasma to thereby activate Factor X to Factor Xa, with quantitation of enzymatic activity by spectrophotometric measurement of cleaved substrate. (Coatest VIII:C/4, Chromogenix, Molndal, Sweden).
FIGS. 4, 5 and 6 show the purification chromatograms for binding of the rhFVIII to SEQ IDs 1, 2 and 3, respectively. In each figure, the bottom HPLC trace is the buffer blank injection; the three other HPLC traces are subsequent injections of the KG2DEAE sample. For each chromatogram, flow-through occurs from t=0-22 minutes; salt wash at t=26-34 minutes; elution at t=44-54 minutes. Each fraction (flow-through, salt wash and elution) was collected and assayed for Factor VIII activity by the above described Coatest assay.

human Factor VIII [2] = biological target: T1, human Factor VIII; experiment: Secondary chromatography binding assay (ELISA quantitation of column fractions); conditions: rhFVIII load 10 μg on peptide-resin column; for Elute Total μg: FVIII by ELISA in elution (Buffer C) fraction; for Flow-Through Total μg: FVIII by ELISA in flow-through fraction; for Salt Wash Total μg: FVIII by ELISA in salt wash (Buffer B) fraction
Experimental: The secondary chromatography binding assays were performed upon a Michrom Bioresources HPLC (Auburn, Calif.). This binary system has the added advantage of a second injection loop which was outfitted with a 5 ml loop. This allowed addition of a third solvent during the HPLC run. Buffer A was 20 mM Imidazole, pH=7.0, 10 mM CaCl2, 300 mM NaCl, 0.01% Tween 80. Buffer B is the same as buffer A but with 1M NaCl and 1M CaCl2. Elution buffer (Buffer C) is the same as buffer A but with 40% ethylene glycol monomer and 250 mM CaCl2. Absorbance was monitored at 280 nm.
Confirmatory FVIII binding assays were performed in a column chromatographic format on the HPLC described above. Batch synthesized peptide-resin (substitution at 100 μmoles/g) was loaded and washed as described in Buettner, J., 1996, supra. The HPLC method injected the sample onto the column at 80 cm/hr linear velocity, allowed for flow-through of unbound protein, then stepped to 200 cm/hr for the wash with Buffer B (as described above), and then the bound protein eluted with Buffer C (as described above). FIGS. 1, 2 and 3 show the results from contacting a known amount of human Factor VIII to each of the preferred peptide-resins (sequence ID 1, 2 and 3, respectively).
Recombinant FVIII was applied to each column as described above. […] ELISA quantitation utilized a polyclonal antisera as capture antibody adsorbed onto the plate well, application of each fraction allowed the Factor VIII to adhere to the capture antibody. The making and using of polyclonal and monoclonal antibodies is well-know, and within the skill of one of ordinary skill in the art. See generally Antibodies, A Lab Manual, Harlow and Lane, eds., 1988, Cold Spring Harbor. Then a panel of 3 monoclonal antibodies were used to identify the Factor VIII and detection of these antibodies with a secondary-antibody enzyme conjugate allowed accurate quantitation of the Factor VIII. The flow-through fractions from each injection show greater than 96% target protein depletion by these peptide ligands. […] The binding avidity was weak enough to permit recovery of target protein during the elution phase of the chromatography.

| Substance | Elute % Recovery (human Factor VIII [1]; inj 2) [%] | Purification (human Factor VIII [1]; inj 2) | Elute Total IU (human Factor VIII [1]; inj 2) [IU] | Flow-Through Total IU (human Factor VIII [1]; inj 2) [IU] | Salt Wash Total IU (human Factor VIII [1]; inj 2) [IU] | Elute % Recovery (human Factor VIII [1]; inj 3) [%] | Purification (human Factor VIII [1]; inj 3) | Elute Total IU (human Factor VIII [1]; inj 3) [IU] | Flow-Through Total IU (human Factor VIII [1]; inj 3) [IU] | Salt Wash Total IU (human Factor VIII [1]; inj 3) [IU] | Elute % Recovery (human Factor VIII [1]; inj 4) [%] | Purification (human Factor VIII [1]; inj 4) | Elute Total IU (human Factor VIII [1]; inj 4) [IU] | Flow-Through Total IU (human Factor VIII [1]; inj 4) [IU] | Salt Wash Total IU (human Factor VIII [1]; inj 4) [IU] | Elute Total μg (human Factor VIII [2]) [µg] | Flow-Through Total μg (human Factor VIII [2]) [µg] | Salt Wash Total μg (human Factor VIII [2]) [µg] |
| --- | --- | --- | --- | --- | --- | --- | --- | --- | --- | --- | --- | --- | --- | --- | --- | --- | --- | --- |
| Trp-His-Tyr-Tyr-His-Gly (WHYYHG; not fully specified; printed as Trp-His-Tyr-Tyr-His-Gly) | 26 | 1.15 | 35 | 5 | 2 | 41 | 1.75 | 56 | 2 | 2 | 40 | 1.64 | 54 | 6 | 5 | 5.31 | 0.03 | 0.14 |
| His-Ile-Gln-His-Tyr-His (HIQHYH; not fully specified; printed as His-Ile-Gln-His-Tyr-His) | 31 | 1.22 | 42 | 1 | 4 | 38 | 1.54 | 52 | 1 | 7 | 33 | 1.48 | 45 | 1 | 9 | 7.26 | 0.00 | 0.74 |
| His-Gln-Tyr-Gly-Tyr-His (HQYGYH; not fully specified; printed as His-Gln-Tyr-Gly-Tyr-His) | 46 | 1.00 | 62 | 2 | 3 | 52 | 1.53 | 71 | 1 | 3 | 55 | 1.47 | 75 | 1 | 3 | 10.31 | 0.00 | 0.85 |
